Laboratory results taken from the RNAGym collection of RNA variant scans (doi:10.7554/elife.90254).

B1: LINE1-mini (parent)
chain: GGCAGAGCUCAACACAGCGUGGCAAAGUGGCUGUGGCUAGACUGCC

Variants of: B1
Test: self-cleavage, relative activity (ratio to wild type); higher = more cleavage; in vitro, sequencing; the parent is a self-cleaving ribozyme

Variant | self-cleavage
GGCAGAGCUGAACUCAGCGUGGCAAAGUGGCUGUGGCUAGACUGCC [C10G A14U] | 0.05
GGCAGAGGUCAACACAGCGUGUCAAAGUGGCUGUGGCUAGACUGCC [C8G G22U] | 0.09
GGCAGAGCUCAAUACAGCGUGGCAAAGUGGCUGUGGCUAGACUGUC [C13U C45U] | 0.13
GGCAGAGCUCAACACAGCGUGGCACAGUAGCUGUGGCUAGACUGCC [A25C G29A] | 0.75
GGCAGAGCUCAACACAGCGUGGCAUAGGGGCUGUGGCUAGACUGCC [A25U U28G] | 0.82
GGCGGACCUCAACACAGCGUGGCAAAGUGGCUGUGGCUAGACUGCC [A4G G7C] | 0.15
GGCAGAGCUCAACACAGCGUGGCAAAGGGGCUGUGGCUAGUCUGCC [U28G A41U] | 0.52
GCCAGAGCUCAACACAGCGUGGCAAAGUGGCUGUGGCUAGACGGCC [G2C U43G] | 0.04
GGCAGAGCUCAACACAGCGUCGCAAAGUGGCUGGGGCUAGACUGCC [G21C U34G] | 0.24
GGCAGAGCUCAACACAGGGUGGCAAAGUGGCUGUGACUAGACUGCC [C18G G36A] | 0.1
GGCAGAGCUCAACACUGCGUGGCAAAGUGGCUGUGGCUAGGCUGCC [A16U A41G] | 0.07
AGCAAAGCUCAACACAGCGUGGCAAAGUGGCUGUGGCUAGACUGCC [G1A G5A] | 0.2
GGCAGAGCUCCACACAGCGUGGCAAAGUGGCUGUGGCUAGACCGCC [A11C U43C] | 0.02
CGCAGAGCUCAACACAGCGUGGCAAAGUGGCUGUGGCUAGACUGGC [G1C C45G] | 0.16
GGCACAGCUCAACACAGUGUGGCAAAGUGGCUGUGGCUAGACUGCC [G5C C18U] | 0.03
GGCAGUGCUCAACACAGCGUGGCAAAGUGGCUGUGGCUCGACUGCC [A6U A39C] | 0.51
GGCAGAGCUCAACACUGCGUGGCAAAGUGGCUGUGGCUAGACGGCC [A16U U43G] | 0.02
GGCAGAGCUCAACACAGCGAGGCUAAGUGGCUGUGGCUAGACUGCC [U20A A24U] | 0.62
GGCAGAGCUCAACACAGCCUGGCAAAGUAGCUGUGGCUAGACUGCC [G19C G29A] | 0.92

Variant | self-cleavage
GGCAGAGCUCAACACGGCGUGGCAAAGUGGCUGCGGCUAGACUGCC [A16G U34C] | 0.08
GGCAGAGCGCAACACAGCGUGGCAAAGUGGCUAUGGCUAGACUGCC [U9G G33A] | 0.06
GGCAGAGCUCAACACAGCGUGGCAAAGUGGCUGUGCCUAGACAGCC [G36C U43A] | 0.08
GGCAGAGCUCAACACAGCAUGGCAAAGUGGCUGUGUCUAGACUGCC [G19A G36U] | 0.09
GGCAGAGCUCAACACAGCGUGGCAAAGUGGCUGUGGCUAGGCUACC [A41G G44A] | 0.08
GGCAGAGCUCAACACAGCGUGGCAAAGUUGCGGUGGCUAGACUGCC [G29U U32G] | 0.27
GGCAGAGCUCUACACAGCGUGGCAAAGGGGCUGUGGCUAGACUGCC [A11U U28G] | 0.12
GGCAGAGCUCAACACAGCGUCGCAAAGGGGCUGUGGCUAGACUGCC [G21C U28G] | 0.45
GGCAGAGCUCAACACAGCGCGGCAAAUUGGCUGUGGCUAGACUGCC [U20C G27U] | 0.31
GGCAGAGCUCAACACAGCGUGGCAAAGUGGCUACGGCUAGACUGCC [G33A U34C] | 0.09
GGCAGAGCUCAAUACAGCGUGGCAAAGUGGCUGCGGCUAGACUGCC [C13U U34C] | 0.14
GGCAGAGCUCAACACAGCGUGGCAAAGUGGCUGUCGCUAAACUGCC [G35C G40A] | 0.1
UGCAGAGCUCAACACAGCGUGGCAAAGUGGCUGUGUCUAGACUGCC [G1U G36U] | 0.11
GGCAGAGCACAACACAGCGUGGCAAACUGGCUGUGGCUAGACUGCC [U9A G27C] | 0.11
GGCAGAGCUCAACACAGCGUGGCGAAGUGGCUGUGGCUAGACUGCG [A24G C46G] | 0.83
GGCAGUGCUCAACACAGCGUGGCAAAGUGGGUGUGGCUAGACUGCC [A6U C31G] | 0.13
GGCAGAGCUCAACACAGCGUGGCAAAGUGGCUGUGACUAGACUGCG [G36A C46G] | 0.34
GGCAGAGCUCAACACCGCGUGGCAAAGGGGCUGUGGCUAGACUGCC [A16C U28G] | 0.07
GCCAGAGCUCAACACAGCGUGGCAAAGUGGCUGUGGCUAGACUGCC [G2C] | 0.13

Variant | self-cleavage
GACAGAGCUCAACACAGAGUGGCAAAGUGGCUGUGGCUAGACUGCC [G2A C18A] | 0.16
GGCAGAGAUCAACACAGCGUGGCAAGGUGGCUGUGGCUAGACUGCC [C8A A26G] | 0.21
GGCAGAGCUCAACACAGCGUGGCAAAGUGGUUGUGCCUAGACUGCC [C31U G36C] | 0.07
GGCAGAGCGCAACACAGCGUGGCAAAGUCGCUGUGGCUAGACUGCC [U9G G29C] | 0.05
GGCAGAGCUCAACACAGCGUGGCAACGUGACUGUGGCUAGACUGCC [A26C G30A] | 1.12
GGCAGAGCUCAACACAGGGUGGCAAAGUGGCUGUGGUUAGACUGCC [C18G C37U] | 0.09
GGCAGAGCUCAACACAGCGUGGCAAAGUGGGGGUGGCUAGACUGCC [C31G U32G] | 0.08
GGCAGAGCUCAACACAGCGUGGCAAAGAGGCUGUGACUAGACUGCC [U28A G36A] | 0.14
GGCAGAGCUCAACACAGCGUGUCAAAGUGGCUGUGGCUUGACUGCC [G22U A39U] | 1
GGCAGAGCUCAACACAGCGUGGCAAAGUGGCAGUGGCUAGAGUGCC [U32A C42G] | 0.06
GGCAGAGCUCAAGACAGCGUGGCAGAGUGGCUGUGGCUAGACUGCC [C13G A25G] | 0.11
GGCAAAGCUCAACACAGCGUGGCAAAGUCGCUGUGGCUAGACUGCC [G5A G29C] | 0.07
GGCAGAGCUCAACGCAGUGUGGCAAAGUGGCUGUGGCUAGACUGCC [A14G C18U] | 0.42
GGCAGUGCUCAACACAGCGUCGCAAAGUGGCUGUGGCUAGACUGCC [A6U G21C] | 0.52
GGCAGAGCUCAACACAGCGUGGGAAACUGGCUGUGGCUAGACUGCC [C23G G27C] | 0.27
GGCAGAGCUCAACACAGCGUGGCAAAGUGGCUUUGGCUAGACAGCC [G33U U43A] | 0.12
GGCAGAGCUCAACACAGCGUGGCAAAGUGGCUGUGGCUAGUUUGCC [A41U C42U] | 0.09
GGCAGAGCUCAACACAGCGUGACAAAUUGGCUGUGGCUAGACUGCC [G22A G27U] | 0.75
